Measured values taken from article PMC4315616.

Legend:
[1] = target: T1, SNV nucleocapsid protein N wild type (SNVN) (Sin Nombre hantavirus, UniProt Q89462 1-428); assay: filter binding
T1 sequence: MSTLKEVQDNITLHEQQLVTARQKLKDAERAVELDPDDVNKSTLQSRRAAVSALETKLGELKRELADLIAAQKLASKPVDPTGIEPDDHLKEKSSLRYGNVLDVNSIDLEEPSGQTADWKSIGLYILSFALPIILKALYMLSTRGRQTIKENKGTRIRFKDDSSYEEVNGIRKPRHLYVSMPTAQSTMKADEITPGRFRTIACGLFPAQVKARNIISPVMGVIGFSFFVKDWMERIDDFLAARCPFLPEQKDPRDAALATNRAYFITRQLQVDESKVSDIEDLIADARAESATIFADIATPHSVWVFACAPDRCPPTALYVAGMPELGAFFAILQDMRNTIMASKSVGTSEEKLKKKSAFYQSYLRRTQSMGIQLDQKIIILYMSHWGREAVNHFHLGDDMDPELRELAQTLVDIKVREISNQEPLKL

[2] = target: T1, SNV nucleocapsid protein N wild type …; assay: BLI
[3] = target: T1, SNV nucleocapsid protein N wild type …; assay: BLI; remark: listed apart in the source
[4] = target: T1, SNV nucleocapsid protein N wild type …; assay: filter binding; remark: listed apart in the source

With GAUAUGUGAG (ssRNA) [uncapped decameric RNA] the binding signal [1] was ~4 fold lower affinity than capped and the Kd [2] was 477 ± 6.8 nM.

GAUAUGUGAG (ssRNA, 5' mRNA cap (enzymatic, Cell Script)) [capped decameric RNA] was tested, and the Kd [3] was 107.8 ± 0.7 nM, the Kd [2] was 106 ± 5.7 nM and the Kd [4] was 120 ± 0.6 nM.
